Results: patent publication US20240052038A1
Where two headings read alike, the source gives them in different places. One block for each substance: values may come before it.

Experiments:
[1] = target: Fc-γ receptors expressed on the immune cells; assay: cell-based or functional assay
[2] = target: Fc-γ receptors expressed on the immune cells; assay: cell-based or functional assay; remark: listed apart in the source
[3] = target: mouse PD-L1 on CD3+ T lymphocytes (mouse) (UniProt Q9EP73); assay: receptor occupancy on blood CD3+ T cells by flow cytometry, correlated with serum antibody concentration after a single injection in mice
mouse PD-L1 on CD3+ T lymphocytes (mouse), sequence (Q9EP73 19-290): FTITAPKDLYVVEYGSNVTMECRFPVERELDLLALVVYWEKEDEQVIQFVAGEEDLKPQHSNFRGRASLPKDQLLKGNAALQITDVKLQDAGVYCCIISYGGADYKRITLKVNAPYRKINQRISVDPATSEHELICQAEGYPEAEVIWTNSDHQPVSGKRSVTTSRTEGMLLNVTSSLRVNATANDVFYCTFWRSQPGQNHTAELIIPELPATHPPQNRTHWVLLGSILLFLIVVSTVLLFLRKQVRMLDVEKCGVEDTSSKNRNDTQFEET

[4] = target: mouse PD-L1 on CD3+ T lymphocytes (mouse) (UniProt Q9EP73); assay: receptor occupancy on blood CD3+ T cells by flow cytometry, mice dosed with 1.5 mg/mouse, day 10

- EC50 (ADCC, Raji/CD-20 target cells, E/T 25:1) [1]: 2.1 ng/mL
- Target cell lysis (ADCC, Raji/CD-20 target cells, E/T 25:1) [1]: 53.5%
- EC50 (ADCC, Raji/CD-20 target cells, E/T 25:1) [2]: 1.9 ng/mL
- Target cell lysis (ADCC, Raji/CD-20 target cells, E/T 25:1) [2]: 43.6%
- Target cell lysis (ADCC, Raji/CD-20 target cells, PBMC effectors, E/T 25:1) [2]: 48.8%
Substance: Rituximab (antibody)

- EC50 (ADCC, CHO-K1/PD-L1 target cells, E/T 25:1; no dose response curve) [2]: 9.5 ng/mL
- Target cell lysis (ADCC, CHO-K1/PD-L1 target cells, E/T 25:1) [2]: 1.4%
Substance: biosimilar of atezolizumab (antibody)

- serum antibody concentration above which complete target occupancy was achieved [3]: 1 nM
- receptor occupancy [4]: > 60%
Substance: rat anti-mouse PD-L1 monoclonal antibody (clone 10F.9G2, BioXCell)
